Patent publication US11845963B2, “HSD17B13 variants and uses thereof” (Regeneron Pharmaceuticals, Inc., priority 2017, dated 2023)
“Also recorded” adds a separate entry of the source.

T1: recombinant human HSD17B13 (Homo sapiens, UniProt Q7Z5P4)
T1 sequence (Q7Z5P4 20-300): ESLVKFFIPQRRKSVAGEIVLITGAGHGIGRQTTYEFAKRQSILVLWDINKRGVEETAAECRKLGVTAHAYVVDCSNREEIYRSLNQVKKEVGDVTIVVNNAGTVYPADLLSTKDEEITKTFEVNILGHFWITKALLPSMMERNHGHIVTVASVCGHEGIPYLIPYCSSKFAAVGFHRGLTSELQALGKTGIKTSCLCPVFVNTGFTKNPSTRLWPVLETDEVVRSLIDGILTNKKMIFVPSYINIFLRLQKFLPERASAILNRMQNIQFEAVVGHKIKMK

T2: recombinant human HSD17B13 (Homo sapiens, UniProt Q7Z5P4)
T2 construct: Transcript A, which encodes the full-length 300 amino acid protein; 10xHis (C); host or cells: E. coli
T2 sequence (Q7Z5P4 with tags, fused parts or gaps): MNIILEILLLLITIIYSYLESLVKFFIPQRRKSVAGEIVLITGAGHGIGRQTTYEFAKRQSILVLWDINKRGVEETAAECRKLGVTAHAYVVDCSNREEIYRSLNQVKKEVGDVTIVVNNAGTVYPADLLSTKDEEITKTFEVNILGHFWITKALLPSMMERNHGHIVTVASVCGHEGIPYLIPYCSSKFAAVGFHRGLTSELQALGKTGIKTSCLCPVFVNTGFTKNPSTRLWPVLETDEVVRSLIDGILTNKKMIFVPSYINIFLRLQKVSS

B1: HSD17B13 isoform A: HSD17B13 protein Isoform A, SEQ ID NO:39; full-length 300 amino acid protein encoded by Transcript A (protein)
chain: MNIILEILLLLITIIYSYLESLVKFFIPQRRKSVAGEIVLITGAGHGIGRQTTYEFAKRQSILVLWDINKRGVEETAAECRKLGVTAHAYVVDCSNREEIYRSLNQVKKEVGDVTIVVNNAGTVYPADLLSTKDEEITKTFEVNILGHFWITKALLPSMMERNHGHIVTVASVCGHEGIPYLIPYCSSKFAAVGFHRGLTSELQALGKTGIKTSCLCPVFVNTGFTKNPSTRLWPVLETDEVVRSLIDGILTNKKMIFVPSYINIFLRLQKFLPERASAILNRMQNIQFEAVVGHKIKMK
modifications: homo sapien
notes: full-length 300 amino acid protein encoded by Transcript A
B2: HSD17B13 isoform D: HSD17B13 protein Isoform D, SEQ ID NO:42; prematurely truncated protein encoded by Transcript D of the rs72613567 variant (protein)
chain: T2 sequence (Q7Z5P4 with tags, fused parts or gaps)
modifications: homo sapien
notes: prematurely truncated protein encoded by Transcript D of the rs72613567 variant

Columns and labels:
[1] = biological target: T1, recombinant human HSD17B13; assay: Substrate screening of steroid and bioactive lipid libraries against purified recombinant HSD17B13 (NADH-Glo); type: biochemical; conditions: 265 unique putative substrates tested
Protocol: Reactions were performed in a final volume of 40 μl of assay buffer (0.2 M Tris-HCl, pH 7.5) which contained 500 μM NAD^+, 5 μM bioactive lipid or 50 μM steroid (all in a final concentration of 5% DMSO), and 100 ng recombinant human HSD17B13. Reactions were incubated for 3 hours, at 23° C. after which an equal volume NADH-Glo Detection Reagent (Promega) was added. Following a 1 hour incubation at 23° C., the relative light units (RLUs) were measured on an Envision Plate Reader (Perkin Elmer). Raw RLU values were normalized as percent of control (50 μM estradiol) following subtraction of negative control (5% DMSO) using the following formula: Percent of control (POC)=100×(Sample (RLU)−Negative CTRLaverage)/(Positive CTRLaverage−Negative CTRLaverage).

[2] = system: HepG2 cells overexpressing HSD17B13 Transcript A or D or GFP; assay: Quantification of intracellular triglyceride content in stable cell lines; type: cell-based, human; conditions: for intracellular triglyceride content of overexpressing cell lines versus GFP control: with oleic acid treatment, FIG. 10
Protocol: HepG2 cells were cultured in Eagle's Minimum Essential Medium supplemented with 10% fetal bovine serum. HSD17B13 transcripts A and D were sub-cloned into Myc-DDK backbone lentivirus constructs, and lentivirus were generated. HepG2 cells were infected with lentivirus carrying the HSD17B13 transcripts. Stable cell lines expressing each HSD17B13 transcript were selected with 1-3 mg/ml Geneticin G-418 sulfate in complete culture medium for two weeks. Following fixation, HSD17B13 isoforms were detected with mouse anti-Myc antibody. Lipid droplets were labeled with BODIPY FL dye (Sigma). Secondary antibodies for immunofluorescence were Alexa Fluor 488 donkey anti-rabbit IgG and Alexa Fluor 594 donkey anti-mouse IgG (Jackson ImmunoResearch).
The triglyceride (TG) content from the stable cells was determined using a TG quantification kit (Abcam). In the assay, TG are converted to free fatty acids and glycerol. The glycerol is then oxidized to generate a product which is quantified (spectrophotometry at λ=570 nm).

[3] = system: HEK293 cells overexpressing HSD17B13 transcript A, transcript D or GFP; assay: Cell-based conversion of estradiol to estrone in culture media, LC-MS; parameters: species or system human; conditions: overexpressed in HEK293 cells; FIG. 4F
Protocol: HEK293 cells overexpressing HSD17B13 transcript A, transcript D or green fluorescent protein (GFP, control) were used to investigate the activity of HSD17B13 against estradiol in a cell-based assay. Estradiol (1 μM) was fed to each cell type. After 48 hours, the media was collected and the concentration of estradiol and its converted product estrone were identified and quantified by LC-MS.

[4] = biological target: T2, recombinant human HSD17B13; assay: In vitro enzymatic activity of purified recombinant HSD17B13 isoforms A and D (NADH production, NAD(P)H-Glo); type: biochemical; conditions: FIG. 4E
Protocol: Recombinant human HSD17B13 protein was purified from E. coli (Genscript) transformed with plasmid DNA harboring HSD17B13 transcript A or transcript D. The HSD17B13 variants contained a 10×His tag at the C terminus and were purified from soluble fraction using a Ni2^+ affinity purification. Enzymatic activity was determined through measurement of NADH production using the NAD(P)H-Glo Detection System (Promega). Reactions were performed for 3 hours at 25° C. in 0.2 M Tris-HCl, pH 7.5, 0.5 mM NAD^+, 75 μM of substrate (Sigma) and 500 ng purified enzyme in a final volume of 100 μL. After incubation, 20 μL of the reaction was combined with 20 μL luciferase reagent (Promega), incubated at room temperature for 1 hour and read on an Envision Plate Reader (Perkin Elmer).

Row | Molecule | conversion of estradiol (substrate) to estrone (product) measured in the culture media [3] | intracellular triglyceride content of overexpressing cell lines versus GFP control [2] | also measured
1 | CCCCC/C=C\C[C@@H](O)/C=C/C=C/C=C\[C@@H](O)CCCC(=O)O [leukotriene B4] |  |  | identified as enzymatic substrate of HSD17B13 [1]: enzymatic substrates of HS17B13
2 | CCCCCCCC/C=C\CCCCCCCC(=O)O [oleic acid, reference compound] |  |  | triglyceride (TG) content after oleic acid treatment ([2]; increasing concentrations of oleic acid, control (GFP), HSD17B13 transcript A and D HepG2 cell lines, FIG. 10B): increased triglyceride (TG) content to a similar extent
3 | B1 | showed robust conversion | No differences in intracellular triglyceride content | 
4 | B2 | did not show much conversion; also recorded: greatly reduced activity towards estradiol | No differences in intracellular triglyceride content | activity towards estradiol in vitro compared to HSD17B13 isoform A ([4]; recombinant protein, NAD+ cofactor): greatly reduced activity towards estradiol; enzymatic activity of the corresponding values for isoform A ([4]; substrates 17-beta estradiol, leukotriene B4 (LTB4), 13(S)-HODE): < 10%
